# From article PMC7497807 (Blood cancer discovery, 2020)
# T1: BCOR (aa 1176–1225)-FITC (UniProt Q6W2J9 1176-1225, fluorescein (printed as BCOR (aa 1176–1225)-FITC))
# T1 peptide (looked up): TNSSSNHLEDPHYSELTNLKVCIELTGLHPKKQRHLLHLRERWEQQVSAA
# Tests used:
# Assay in all cases: fluorescence polarisation
# [1] = biological target: T1, BCOR (aa 1176–1225)-FITC
# [2] = biological target: fluorescein-labeled CBX8 peptide (FITC-CBX8) (fluorescein (printed as FITC-CBX8))
# [3] = biological target: MBP-AF9
# Sequence of MBP-AF9 (P42568 whole entry, the tested form may be a part): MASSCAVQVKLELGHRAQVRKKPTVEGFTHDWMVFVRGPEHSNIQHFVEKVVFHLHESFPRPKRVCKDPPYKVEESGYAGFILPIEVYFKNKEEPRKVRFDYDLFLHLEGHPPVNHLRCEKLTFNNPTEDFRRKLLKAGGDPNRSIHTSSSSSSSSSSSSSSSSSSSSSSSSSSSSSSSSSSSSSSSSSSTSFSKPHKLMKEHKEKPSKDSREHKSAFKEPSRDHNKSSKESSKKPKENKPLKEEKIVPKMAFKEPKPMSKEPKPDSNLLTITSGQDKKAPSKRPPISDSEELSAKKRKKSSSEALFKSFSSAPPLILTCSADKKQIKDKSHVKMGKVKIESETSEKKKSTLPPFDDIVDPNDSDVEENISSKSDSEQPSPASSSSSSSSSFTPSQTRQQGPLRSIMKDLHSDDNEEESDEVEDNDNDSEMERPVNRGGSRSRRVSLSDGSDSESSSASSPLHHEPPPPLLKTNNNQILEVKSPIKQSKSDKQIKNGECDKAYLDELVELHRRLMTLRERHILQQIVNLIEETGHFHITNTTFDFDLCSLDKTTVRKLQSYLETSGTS
Binder,fold tighter binding to MBP-ENL than to MBP-AF9 [1],Kd [2],IC50 [3]
MBP-ENL (domain or fragment) YTDELVELHRRLMALRERNVLQQIVNLIEETGHFNVTNTTFDFDLFSLDETTVRKLQSCLE,9 fold,112 ± 13 nM,–
AQGGRPSLIARIPVARILGDPEEE [unlabeled CBX8 WT peptide],–,–,1880 ± 202 nM
